Test results published in PMC4453472, “First Glycoside Hydrolase Family 2 Enzymes from Thermus antranikianii and Thermus brockianus with β-Glucosidase Activity” (Frontiers in Bioengineering and Biotechnology, 2015).

Columns and labels:
Assay in all cases: purified protein
[1] = tested on: T1, O=[N+]([O-])c1ccc(O[C@@H]2O[C@H](CO)[C@@H](O)[C@H](O)[C@H]2O)cc1; type: biochemical, Thermus antranikianii; conditions: 90°C, 20 mM citrate buffer pH 6.5, 0-10 mM substrate, 10 min
T1 construct: recombinant, pQE-80L (His-tag vector) in E. coli BL21 Star(DE3); heat precipitation and Ni-NTA

[2] = tested on: T2, O=[N+]([O-])c1ccc(O[C@@H]2O[C@H](CO)[C@H](O)[C@H](O)[C@H]2O)cc1; type: biochemical, Thermus antranikianii; conditions: 90°C, 20 mM citrate buffer pH 6.5, 0-25 mM substrate, 10 min
T2 construct: recombinant, pQE-80L (His-tag vector) in E. coli BL21 Star(DE3); heat precipitation and Ni-NTA

purified protein [3] = substrate: O=[N+]([O-])c1ccc(O[C@@H]2O[C@H](CO)[C@@H](O)[C@H](O)[C@H]2O)cc1; conditions: 90°C, 20 mM maleate buffer pH 6.5, 0-10 mM substrate, 10 min
purified protein [4] = substrate: O=[N+]([O-])c1ccc(O[C@@H]2O[C@H](CO)[C@H](O)[C@H](O)[C@H]2O)cc1; conditions: 90°C, 20 mM maleate buffer pH 6.5, 0-25 mM substrate, 10 min

| Molecule | Km [1] [µM] | Vmax [1] [µmol/min/mg] | kcat [1] [s⁻¹] | kcat/Km [1] [M⁻¹ s⁻¹] | Km [2] [µM] | Vmax [2] [µmol/min/mg] | kcat [2] [s⁻¹] | kcat/Km [2] [M⁻¹ s⁻¹] | Km (purified protein [3]) [µM] | Vmax (purified protein [3]) [µmol/min/mg] | kcat (purified protein [3]) [s⁻¹] | kcat/Km (purified protein [3]) [M⁻¹ s⁻¹] | Km (purified protein [4]) [µM] | Vmax (purified protein [4]) [µmol/min/mg] | kcat (purified protein [4]) [s⁻¹] | kcat/Km (purified protein [4]) [M⁻¹ s⁻¹] |
| --- | --- | --- | --- | --- | --- | --- | --- | --- | --- | --- | --- | --- | --- | --- | --- | --- |
| TaGH2 (Thermus antranikianii) | 730 ± 30 | 4028 ± 21 | 21600 | 2.95e+07 | 2200 ± 20 | 2615 ± 3 | 14000 | 6.36e+06 | – | – | – | – | – | – | – | – |
| TbGH2 (Thermus brockianus) (protein) RLKSALFLAHPAGEPEALPEEGWREVALPHQWTLEGLEAEVGWYRLTLPEGGPRRFLRSLGDYYQEAWLEGRFLGRHEGYFFPWLLELPPGKELYLRVSAPKEPLGQWPRFKRQIKGVLGQHDCRPGGVSPRGQERGTGGLWGGVEVVFREEVALLHLTHRLHPRPGGWRLLVRLLLDAPRPFAERVLLRLSPENFPGEAWTQEVGLRGDAGRGYREVVWDLPEMPLWEVWERGFPHLFRLEAELAQAQVSAPLGFRTVAWDEEGWLLLNGRRLFLRGTNHIPTQWLAAYSQALAEKDVALLKEAGLNAVRVHAHLTHPVFYEVCDREGVLVWQDFPLQWGYAPDEAFAEEAVRQVRAMVEHYGAHPSIYLWCAQNEPTHNRHALGPLLAAELRAQDPSRLVKEASDFREHPYPGWYWGHFRDFLALPGAPLPSEFGAQALPRAELLRRVLGEAAWPPKWEVWAYHNFQPHETFRVAGVEMGTSLESFVENSQAYQARLLSFAIHVYRRAKGKVVGYFQFLFAEPWEGITWAVLDVERIPKKGFHALKEASSPVLLSLVPYRERLEVGGVPLWEAWLVNDLERPLTLRVALALEGPVALPLWEGEVAVAGGEVRRFFSLGELWESPWEAQERLMRVAEALRRLPPGRYRLVGEAWEGERLWSRQVVELVYLEPLVPPGEAW | – | – | – | – | – | – | – | – | 500 ± 20 | 778 | 3900 | 7.8e+06 | 3560 ± 70 | 1333 ± 11 | 6680 | 1.88e+06 |
